Results from the supplement of paper PMC7125110.
± gives the standard error. For some assays here: Variants at the floor of the assay were thinned out.

B1: glmS ribozyme (parent)
chain: AUAAAAGCGCCAGAACUACAGAAAUGUAGUUGACGAGGAGGAGGUUUAUCGAAUUUUCGGCGGAUGCCUCCAAA

What was measured:
Conditions in all cases: with glucosamine-6-phosphate
[1] = variants of: B1; assay: kcat; higher = faster cleavage; RNA array
In short: (§1)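 Barcoded glmS ribozyme variants on sequenced MiSeq chips were transcribed in situ by E. coli RNA polymerase and tracked through a hybridised Cy3 probe at 37 °C. Glucosamine-6-phosphate (40 μM to 10 mM) in HEPES/KCl/Mg(OAc)2 buffer was flowed in, and tiles were imaged over ~14 h. Signals were normalised to baseline and to non-cleaving reference variants; per-tile medians were fit to one- or two-exponential decays to give kobs. kcat and KM came from weighted Michaelis–Menten fits across concentrations.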

[2] = variants of: B1; assay: self-cleavage kobs at 40 uM GlcN6P; higher = faster cleavage; RNA array
In short: as §1

[3] = variants of: B1; assay: self-cleavage kobs at 640 uM GlcN6P; higher = faster cleavage; RNA array
In short: as §1

[4] = variants of: B1; assay: self-cleavage kobs at 10000 uM GlcN6P; higher = faster cleavage; RNA array
In short: as §1

[5] = variants of: B1; assay: KM; higher = weaker cofactor use; RNA array
In short: as §1

[6] = variants of: B1; assay: self-cleavage kobs at 2500 uM GlcN6P; higher = faster cleavage; RNA array
In short: as §1

[7] = variants of: B1; assay: self-cleavage kobs at 160 uM GlcN6P; higher = faster cleavage; RNA array
In short: as §1

Variant | kcat [1] [s⁻¹] | self-cleavage kobs at 40 uM GlcN6P [2] [s⁻¹] | self-cleavage kobs at 640 uM GlcN6P [3] [s⁻¹] | self-cleavage kobs at 10000 uM GlcN6P [4] [s⁻¹] | KM [5] [µM] | self-cleavage kobs at 2500 uM GlcN6P [6] [s⁻¹] | self-cleavage kobs at 160 uM GlcN6P [7] [s⁻¹]
A52U C71A | 0.000156 ± 2.6e-05 | < 1e-05 | 5.96e-05 ± 1.3e-05 | 0.000144 ± 1.6e-05 | – | – | –
A52U C71G | 9.41e-05 ± 6.3e-06 | – | 3.14e-05 ± 1.3e-05 | 8.19e-05 ± 1e-05 | 1700 ± 380 | 5.28e-05 ± 9.2e-06 | –
A53C U65A C70A C71A | 1.25e-05 ± 4e-06 | – | – | – | – | – | –
U55G A64U | 0.000152 ± 1.9e-05 | – | – | 0.00011 ± 1.4e-05 | 3480 ± 950 | 6.75e-05 ± 8.7e-06 | –
G51A C67U | < 1e-05 | < 1e-05 | – | – | – | – | –
U55G C70G | 0.000127 ± 2.5e-05 | 2.75e-05 ± 1.4e-05 | 0.00014 ± 1.9e-05 | 9.38e-05 ± 1.8e-05 | – | 0.000184 ± 3.8e-05 | 7.54e-05 ± 1.6e-05
U55G C70A | 0.000145 ± 2.6e-05 | 5.03e-05 ± 1.3e-05 | 0.00015 ± 3e-05 | 0.000131 ± 2.6e-05 | – | 0.000147 ± 2.4e-05 | 5.52e-05 ± 1.4e-05
A53U G59A | 4.83e-05 ± 6.3e-06 | < 1e-05 | – | 4.2e-05 ± 8.2e-06 | – | 3.5e-05 ± 1.2e-05 | –
U54C A64C | 0.000257 ± 3.3e-05 | – | 3.19e-05 ± 1e-05 | 0.000185 ± 2.1e-05 | 3560 ± 1000 | 0.000124 ± 2e-05 | –
U54C C67A | 0.00598 ± 0.0014 | 0.000198 ± 3.2e-05 | 0.00199 ± 0.00058 | 0.00521 ± 0.00071 | 1580 ± 590 | – | 0.000315 ± 0.00012
U54C C67G | 0.000821 ± 0.00019 | 5.95e-05 ± 1.1e-05 | 0.000519 ± 7.3e-05 | 0.00137 ± 0.00026 | 534 ± 220 | 0.000553 ± 8.6e-05 | 0.000179 ± 2.6e-05
U55G U65G | 0.00419 ± 0.00048 | 5.26e-05 ± 1.1e-05 | 0.000628 ± 0.0001 | 0.0033 ± 0.00045 | 3440 ± 580 | 0.00164 ± 0.00022 | 0.00022 ± 6.1e-05
U55G U65A | 0.00461 ± 0.00094 | 6.02e-05 ± 7.6e-06 | 0.000695 ± 0.00011 | 0.00388 ± 0.00043 | 3100 ± 880 | 0.00174 ± 0.00025 | 0.000296 ± 4.5e-05
C50U U65G | < 1e-05 | < 1e-05 | – | – | – | – | –
A53U G66A | 0.0162 ± 0.0055 | 0.000372 ± 5.2e-05 | 0.00327 ± 0.00068 | 0.0144 ± 0.0026 | 2370 ± 1000 | 0.00666 ± 0.0024 | 0.000827 ± 0.00015
A53U G66C | 0.000389 ± 9.5e-05 | – | 0.000103 ± 2.5e-05 | 0.000387 ± 0.00011 | 1980 ± 890 | 0.000187 ± 4.6e-05 | –
G51U G60C C68A | 2.85e-05 ± 8.6e-06 | – | – | – | – | – | –

Variant | kcat [1] [s⁻¹] | self-cleavage kobs at 40 uM GlcN6P [2] [s⁻¹] | self-cleavage kobs at 640 uM GlcN6P [3] [s⁻¹] | self-cleavage kobs at 10000 uM GlcN6P [4] [s⁻¹] | KM [5] [µM] | self-cleavage kobs at 2500 uM GlcN6P [6] [s⁻¹] | self-cleavage kobs at 160 uM GlcN6P [7] [s⁻¹]
A53U C68G | 7.87e-05 ± 9.6e-06 | – | 6.63e-05 ± 1.1e-05 | 7.67e-05 ± 7.9e-06 | – | 7.65e-05 ± 1.4e-05 | 8.2e-05 ± 1.4e-05
U54C C58G | 5.26e-05 ± 4.8e-06 | – | – | 3.05e-05 ± 1.2e-05 | 7250 ± 1300 | – | –
A52G U55G | 0.00167 ± 0.00021 | – | 0.000252 ± 2.5e-05 | 0.00124 ± 0.00013 | 3170 ± 560 | 0.000786 ± 7.4e-05 | 8.73e-05 ± 8.7e-06
A52G U55C | 0.00205 ± 0.00032 | 3.24e-05 ± 8.4e-06 | 0.000325 ± 5e-05 | 0.00158 ± 0.00017 | 3680 ± 850 | 0.000739 ± 9.4e-05 | 8.26e-05 ± 1.2e-05
U55C U57G | 3.92e-05 ± 2.9e-06 | < 1e-05 | – | – | 840 ± 320 | 2.98e-05 ± 1.5e-05 | < 1e-05
U55G U56G | 0.0156 ± 0.0072 | 0.000205 ± 3e-05 | 0.00307 ± 0.00039 | 0.0215 ± 0.0038 | – | 0.00561 ± 0.00078 | 0.000797 ± 0.00014
U55G G60A | 2.4e-05 ± 6.2e-07 | – | – | – | 1810 ± 130 | – | –
G51U C71G | 1.29e-05 ± 2.7e-06 | – | – | – | – | – | –
G51A C71A | 1.9e-05 ± 9e-07 | – | – | – | 105 ± 32 | – | –
A53G G59A | 0.000102 ± 1.3e-05 | – | – | 7e-05 ± 1.9e-05 | 4360 ± 1300 | 3.91e-05 ± 1.5e-05 | –
A53G G59U | 2.73e-05 ± 4.3e-06 | – | – | 2.45e-05 ± 7.8e-06 | – | 2.98e-05 ± 1.2e-05 | –
U54G U69G | 7.3e-05 ± 1.5e-05 | 3.86e-05 ± 1.3e-05 | 9.61e-05 ± 1.4e-05 | 4.86e-05 ± 1.1e-05 | – | 8.77e-05 ± 1.5e-05 | 8.46e-05 ± 2.2e-05
U56A U65C | 0.00025 ± 5.7e-05 | – | 0.000242 ± 6.3e-05 | 0.000248 ± 4.7e-05 | – | 0.000177 ± 4.4e-05 | –
U56A U65A | 0.00156 ± 0.00058 | 4.51e-05 ± 1.1e-05 | 0.000368 ± 5.1e-05 | 0.00148 ± 0.00021 | – | 0.000569 ± 9.2e-05 | 7.79e-05 ± 1.3e-05
A53C C70A | 5.94e-05 ± 1.5e-05 | < 1e-05 | – | 5.03e-05 ± 1.1e-05 | – | 6.85e-05 ± 1.7e-05 | –
A53G C58A | 0.000622 ± 7.5e-05 | – | 0.000129 ± 1.6e-05 | 0.0005 ± 5.8e-05 | 2190 ± 460 | 0.00036 ± 4.4e-05 | 5.7e-05 ± 1.3e-05
